In patent publication US20110152166A1, “METHOD OF MODULATION OF PROTEIN PHOSPHORYLATION-DEPENDENT CONFORMATIONAL TRANSITIONS WITH LOW MOLECULAR WEIGHT COMPOUNDS” (priority 2006, published 2011):
Residue numbers refer to the chain shown, from its start. Square brackets hold non-standard residues; d marks the D form. Ends that are not written are not given here. pS = N[C@@H](COP(=O)(O)O)C(=O)O

Experiments:
Assay in all cases: PDK1 activity assay with T308tide
Assay type in all cases: biochemical
GST-PDK1 wt = target: T1, GST-PDK1 wt (Homo sapiens, UniProt O15530)
T1 construct: different protein constructs, comprising the full length protein or the catalytic domain alone; made in house; host or cells: HEK293 cells (pEBG-2T-PDK1)
T1 sequence (O15530 1-556): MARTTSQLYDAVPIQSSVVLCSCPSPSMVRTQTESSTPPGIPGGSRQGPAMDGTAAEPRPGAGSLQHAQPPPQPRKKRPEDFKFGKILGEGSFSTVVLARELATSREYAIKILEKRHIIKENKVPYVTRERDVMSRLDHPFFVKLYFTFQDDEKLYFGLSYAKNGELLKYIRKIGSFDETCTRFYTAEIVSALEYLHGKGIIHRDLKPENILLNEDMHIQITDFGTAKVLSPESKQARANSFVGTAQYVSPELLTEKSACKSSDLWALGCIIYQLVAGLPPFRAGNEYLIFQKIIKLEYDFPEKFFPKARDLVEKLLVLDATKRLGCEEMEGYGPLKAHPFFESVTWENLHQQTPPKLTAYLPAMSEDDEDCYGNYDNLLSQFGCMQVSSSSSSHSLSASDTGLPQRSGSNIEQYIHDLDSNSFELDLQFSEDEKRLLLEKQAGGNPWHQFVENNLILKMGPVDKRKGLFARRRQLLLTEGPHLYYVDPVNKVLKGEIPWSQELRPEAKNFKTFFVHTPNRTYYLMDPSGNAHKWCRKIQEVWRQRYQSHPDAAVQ
Procedure: (§1) Protein kinase activity tests were performed essentially as previously described (Balendran et al., 2000; Biondi et al., 2000; Biondi et al., 2001). Substrates used were either MBP (for PKCζ or polypeptides (Crosstide for PKB, S6K, SGK and PRK2; T308tide for PDK1, and Kemptide for PKA). PKA (Sigma) was measured in the presence of 100 μM cAMP. Alternatively, assays were performed in a 96 well format, aliquots spotted on p81 phosphocellulose papers (Whatmann), washed in 0.01% phosphoric acid, dried, and then exposed and analysed using Phospholmager technology (Storm, Molecular Dynamics). Activity measurements were performed in duplicates with less than 10% difference between duplicate pairs. Experiments were repeated at least twice, although most of the experiments were repeated multiple times, with similar results.
(§2) PDK1 activity assay was performed in a 20 μl mix containing 50 mM Tris-HCl pH 7.5, 0.05 mg/ml BSA, 0.1% β-mercaptoethanol, 10 mM MgCl2, 100 μM [γ^32P]ATP (5-50 cpm/pmol), 0.003% Brij, 150 ng PDK1, and T308tide (from 0.05 to 1 mM). PDK1 specific activity was approximately 5 U/mg (when measured at 1 mM T308tide). The effect of small compounds on PDK1 was repeated with proteins from different purification batches and with different protein constructs, comprising the full length protein or the catalytic domain alone, with similar results. […] This variability may be due to the PIFtide/compound-stimulated autophosphorylation of the activation loop in certain preparations having less than a 1:1 molar phosphorylation stoichiometry at this site.
(§3) PDK1 activity was measured at room temperature using a polypeptide substrate derived from the activation loop phosphorylation site of PKB, T308tide (0.1 mM). […] GST-PDK1 wt was purified in numerous occasions and the maximal activation level of different batches varied between 3 and 8 fold activation with PIFtide or compound 1. Variations in the basal activity and fold activation were also observed in mutants. Therefore, comparisons in the maximal level of activation between mutants should be performed with care. The data shown are from an experiment where PIFtide concentrations were tested between 50 nM and 20 µM and compound 1 concentrations were between 5 μM and 200 μM, in triplicate. AC50 and max. activity were estimated by fitting the data to a hyperbola using Kaleidagraph software. One Unit of PDK1 activity was defined as the amount required to catalyse the phosphorylation of 1 nmol of the T308tide in 1 min.

GST-PDK1 [Ile119Ala] = target: T2, GST-PDK1 [Ile119Ala] (Homo sapiens, UniProt O15530, I119A); conditions: Ile119 mutant; P-HM-RSK 20 μM
T2 construct: different protein constructs, comprising the full length protein or the catalytic domain alone; made in house; host or cells: HEK293 cells (pEBG-2T-PDK1 mutant)
T2 sequence (O15530 1-556 I119A): T1 sequence (O15530 1-556) with I119A
Procedure: as §1, §2, §3

GST-PDK1 [Gln150Ala] = target: T3, GST-PDK1 [Gln150Ala] (Homo sapiens, UniProt O15530, Q150A); conditions: PDK1[Gln150Ala]; 20 μM
T3 construct: different protein constructs, comprising the full length protein or the catalytic domain alone; made in house; host or cells: HEK293 cells (pEBG-2T-PDK1 mutant)
T3 sequence (O15530 1-556 Q150A): T1 sequence (O15530 1-556) with Q150A
Procedure: as §1, §2, §3

GST-PDK1 [Thr148Val] = target: T4, GST-PDK1 [Thr148Val] (Homo sapiens, UniProt O15530, T148V); conditions: PDK1[Thr148Val]; 20 μM
T4 construct: different protein constructs, comprising the full length protein or the catalytic domain alone; made in house; host or cells: HEK293 cells (pEBG-2T-PDK1 mutant)
T4 sequence (O15530 1-556 T148V): T1 sequence (O15530 1-556) with T148V
Procedure: as §1, §2, §3

Substance	activation of PDK1 (in words) (GST-PDK1 wt; concentrations up to 500 µM, data not shown)	activation of PDK1 mutant (in words) (GST-PDK1 [Ile119Ala])	activation of PDK1 mutant (in words) (GST-PDK1 [Gln150Ala])	activation of PDK1 mutant (in words) (GST-PDK1 [Thr148Val])	activation of PDK1 (in words) (GST-PDK1 wt; PDK1 wild type)
GFRDFDY [polypeptide comprising the complete hydrophobic motif present in PIFtide, reference compound]	did not activate PDK1				
P-HM-PKB: phosphorylated HM polypeptide of PKB: KGAGGGGFPQFS(P)YSA (KGAGGGGFPQF[pS]YSA) [reference compound]		completely abolished	completely abolished	completely abolished	activated
